Measurements from PMC9482650, “Quantitative fragmentomics allow affinity mapping of interactomes” (Nature Communications, 2022).

These binders were tested against IL16_4, Q14005 (assay: holdup assay). Conditions: plain residues with an end cap or a label only (N-terminal biotin on a linker: ado-ado).
Parameters: key: below the threshold = too weak to quantify, mostly under pKd 3.1 to 4

Sequence of IL16_4, Q14005 (Q14005 1229-1329): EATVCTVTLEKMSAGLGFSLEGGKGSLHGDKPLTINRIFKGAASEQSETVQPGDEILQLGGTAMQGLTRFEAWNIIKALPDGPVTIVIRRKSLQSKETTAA

Binder | pKd
PSVYSRSQYV [CLDN8, P56748] | below the threshold
GDSSRKEYFI [GYPC, P04921] | below the threshold

The binders below were run against T1, ARHGEF11, O15085 (assay: holdup assay). Conditions: plain residues with an end cap or a label only (N-terminal biotin on a linker: ado-ado).
T1 sequence (O15085 42-136, limits assumed, looked up): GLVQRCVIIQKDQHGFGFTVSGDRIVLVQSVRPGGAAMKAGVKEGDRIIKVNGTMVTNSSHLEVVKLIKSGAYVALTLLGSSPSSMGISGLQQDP
Parameters: key: below the threshold = too weak to quantify, mostly under pKd 3.1 to 4

Binder | pKd
PSVYSRSQYV [CLDN8, P56748] | 4.16
GDSSRKEYFI [GYPC, P04921] | below the threshold

The binders below were run against LNX1_2, Q8TBB1 (assay: holdup assay). Conditions: plain residues with an end cap or a label only (N-terminal biotin on a linker: ado-ado).
Sequence of LNX1_2, Q8TBB1 (Q8TBB1 371-470): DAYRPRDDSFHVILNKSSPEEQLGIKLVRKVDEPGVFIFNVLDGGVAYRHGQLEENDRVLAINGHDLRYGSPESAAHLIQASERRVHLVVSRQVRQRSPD
Parameters: key: below the threshold = too weak to quantify, mostly under pKd 3.1 to 4

Binder | pKd
PSVYSRSQYV [CLDN8, P56748] | 3.7
GDSSRKEYFI [GYPC, P04921] | below the threshold

These binders were tested against T2, PDZD2_2, O15018 (assay: holdup assay). Conditions: plain residues with an end cap or a label only (N-terminal biotin on a linker: ado-ado).
T2 sequence (O15018 329-429, limits assumed, looked up): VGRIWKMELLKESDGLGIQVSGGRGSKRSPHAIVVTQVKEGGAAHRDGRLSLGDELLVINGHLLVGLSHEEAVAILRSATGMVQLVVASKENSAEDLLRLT
Parameters: key: below the threshold = too weak to quantify, mostly under pKd 3.1 to 4

Binder | pKd
PSVYSRSQYV [CLDN8, P56748] | 4.55
GDSSRKEYFI [GYPC, P04921] | 4.28

The binders below were run against DLG2_2, Q15700 (assay: holdup assay). Conditions: plain residues with an end cap or a label only (N-terminal biotin on a linker: ado-ado).
Sequence of DLG2_2, Q15700 (Q15700 189-283): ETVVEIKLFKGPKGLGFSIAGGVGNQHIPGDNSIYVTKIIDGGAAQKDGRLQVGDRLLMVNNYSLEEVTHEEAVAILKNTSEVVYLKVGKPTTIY
Parameters: key: below the threshold = too weak to quantify, mostly under pKd 3.1 to 4

Binder | pKd
PSVYSRSQYV [CLDN8, P56748] | below the threshold
GDSSRKEYFI [GYPC, P04921] | below the threshold

What follows are binders tested against SCRIB_2, Q14160 (assay: holdup assay). Conditions: plain residues with an end cap or a label only (N-terminal biotin on a linker: ado-ado).
Sequence of SCRIB_2, Q14160 (Q14160 857-960): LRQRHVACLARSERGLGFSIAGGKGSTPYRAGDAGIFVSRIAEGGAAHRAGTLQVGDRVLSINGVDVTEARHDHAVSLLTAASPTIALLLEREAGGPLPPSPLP
Parameters: key: below the threshold = too weak to quantify, mostly under pKd 3.1 to 4

Binder | pKd
PSVYSRSQYV [CLDN8, P56748] | below the threshold
GDSSRKEYFI [GYPC, P04921] | 3.69

The binders below were run against FRMPD2_2, Q68DX3 (assay: holdup assay). Conditions: plain residues with an end cap or a label only (N-terminal biotin on a linker: ado-ado).
Sequence of FRMPD2_2, Q68DX3 (Q68DX3 944-1038): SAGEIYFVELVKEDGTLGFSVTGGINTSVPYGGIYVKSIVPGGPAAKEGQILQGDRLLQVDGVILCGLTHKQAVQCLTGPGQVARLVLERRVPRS
Parameters: key: below the threshold = too weak to quantify, mostly under pKd 3.1 to 4

Binder | pKd
PSVYSRSQYV [CLDN8, P56748] | below the threshold
GDSSRKEYFI [GYPC, P04921] | below the threshold

The binders below were run against MAGI2_4, Q86UL8 (assay: holdup assay). Conditions: plain residues with an end cap or a label only (N-terminal biotin on a linker: ado-ado).
Sequence of MAGI2_4, Q86UL8 (Q86UL8 772-865): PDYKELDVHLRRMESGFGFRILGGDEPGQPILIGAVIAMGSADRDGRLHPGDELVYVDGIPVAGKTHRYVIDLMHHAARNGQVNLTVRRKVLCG
Parameters: key: below the threshold = too weak to quantify, mostly under pKd 3.1 to 4

Binder | pKd
PSVYSRSQYV [CLDN8, P56748] | 3.62
GDSSRKEYFI [GYPC, P04921] | below the threshold

These binders were tested against T3, APBA3_1, O96018 (assay: holdup assay). Conditions: plain residues with an end cap or a label only (N-terminal biotin on a linker: ado-ado).
T3 sequence (O96018 389-490, limits assumed, looked up): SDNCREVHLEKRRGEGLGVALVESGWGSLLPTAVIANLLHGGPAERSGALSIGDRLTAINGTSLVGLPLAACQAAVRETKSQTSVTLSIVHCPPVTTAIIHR
Parameters: key: below the threshold = too weak to quantify, mostly under pKd 3.1 to 4

Binder | pKd
PSVYSRSQYV [CLDN8, P56748] | below the threshold
GDSSRKEYFI [GYPC, P04921] | below the threshold

The binders below were run against LAP2, Q96RT1 (assay: holdup assay). Conditions: plain residues with an end cap or a label only (N-terminal biotin on a linker: ado-ado).
Sequence of LAP2, Q96RT1 (Q96RT1 other isoform, or with tags, fused parts or gaps): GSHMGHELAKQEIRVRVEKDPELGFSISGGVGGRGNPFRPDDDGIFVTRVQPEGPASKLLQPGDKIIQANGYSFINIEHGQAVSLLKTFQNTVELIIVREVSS
Parameters: key: below the threshold = too weak to quantify, mostly under pKd 3.1 to 4

Binder | pKd
PSVYSRSQYV [CLDN8, P56748] | below the threshold
GDSSRKEYFI [GYPC, P04921] | 3.62

What follows are binders tested against T4, GRIP1_4, Q9Y3R0 (assay: holdup assay). Conditions: plain residues with an end cap or a label only (N-terminal biotin on a linker: ado-ado).
T4 sequence (Q9Y3R0 467-571, limits assumed, looked up): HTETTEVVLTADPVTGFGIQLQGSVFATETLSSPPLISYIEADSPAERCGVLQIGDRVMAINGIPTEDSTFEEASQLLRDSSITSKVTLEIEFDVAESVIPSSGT
Parameters: key: below the threshold = too weak to quantify, mostly under pKd 3.1 to 4

Binder | pKd
PSVYSRSQYV [CLDN8, P56748] | below the threshold
GDSSRKEYFI [GYPC, P04921] | below the threshold

These binders were tested against T5, NHERF3_4, Q5T2W1 (assay: holdup assay). Conditions: plain residues with an end cap or a label only (N-terminal biotin on a linker: ado-ado).
T5 sequence (Q5T2W1 373-468, limits assumed, looked up): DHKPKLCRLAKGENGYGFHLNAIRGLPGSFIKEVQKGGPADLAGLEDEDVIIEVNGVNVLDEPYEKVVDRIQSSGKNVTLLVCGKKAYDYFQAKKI
Parameters: key: below the threshold = too weak to quantify, mostly under pKd 3.1 to 4

Binder | pKd
PSVYSRSQYV [CLDN8, P56748] | 4.13
GDSSRKEYFI [GYPC, P04921] | below the threshold

The binders below were run against SNX27, Q96L92 (assay: holdup assay). Conditions: plain residues with an end cap or a label only (N-terminal biotin on a linker: ado-ado).
Parameters: key: below the threshold = too weak to quantify, mostly under pKd 3.1 to 4

Binder | pKd
PSVYSRSQYV [CLDN8, P56748] | 3.75
GDSSRKEYFI [GYPC, P04921] | below the threshold

These binders were tested against Inadl_3, Q8NI35 (assay: holdup assay). Conditions: plain residues with an end cap or a label only (N-terminal biotin on a linker: ado-ado).
Sequence of Inadl_3, Q8NI35 (Q8NI35 359-469): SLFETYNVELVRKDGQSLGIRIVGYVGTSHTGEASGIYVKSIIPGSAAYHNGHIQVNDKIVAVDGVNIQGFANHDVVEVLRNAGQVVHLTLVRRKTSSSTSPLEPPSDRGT
Parameters: key: below the threshold = too weak to quantify, mostly under pKd 3.1 to 4

Binder | pKd
PSVYSRSQYV [CLDN8, P56748] | below the threshold
GDSSRKEYFI [GYPC, P04921] | 4.2

Each binder was assayed against AHNAK1, Q09666 (assay: holdup assay). Conditions: plain residues with an end cap or a label only (N-terminal biotin on a linker: ado-ado).
Sequence of AHNAK1, Q09666 (Q09666 4-100): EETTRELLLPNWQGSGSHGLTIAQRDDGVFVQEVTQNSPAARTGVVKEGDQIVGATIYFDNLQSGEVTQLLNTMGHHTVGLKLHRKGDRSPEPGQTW
Parameters: key: below the threshold = too weak to quantify, mostly under pKd 3.1 to 4

Binder | pKd
PSVYSRSQYV [CLDN8, P56748] | below the threshold
GDSSRKEYFI [GYPC, P04921] | below the threshold

What follows are binders tested against LNX1_3, Q8TBB1 (assay: holdup assay). Conditions: plain residues with an end cap or a label only (N-terminal biotin on a linker: ado-ado).
Sequence of LNX1_3, Q8TBB1 (Q8TBB1 500-596): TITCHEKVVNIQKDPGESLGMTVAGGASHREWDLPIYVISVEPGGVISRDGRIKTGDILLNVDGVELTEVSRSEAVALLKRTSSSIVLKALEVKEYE
Parameters: key: below the threshold = too weak to quantify, mostly under pKd 3.1 to 4

Binder | pKd
PSVYSRSQYV [CLDN8, P56748] | below the threshold
GDSSRKEYFI [GYPC, P04921] | below the threshold

What follows are binders tested against T6, TIAM2, Q8IVF5 (assay: holdup assay). Conditions: plain residues with an end cap or a label only (N-terminal biotin on a linker: ado-ado).
T6 sequence (Q8IVF5 885-986, limits assumed, looked up): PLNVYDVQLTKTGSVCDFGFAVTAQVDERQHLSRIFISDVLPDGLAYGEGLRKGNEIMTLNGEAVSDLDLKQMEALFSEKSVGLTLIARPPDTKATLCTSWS
Parameters: key: below the threshold = too weak to quantify, mostly under pKd 3.1 to 4

Binder | pKd
PSVYSRSQYV [CLDN8, P56748] | 4.1
GDSSRKEYFI [GYPC, P04921] | 4.23

What follows are binders tested against TJP1_3, Q07157 (assay: holdup assay). Conditions: plain residues with an end cap or a label only (N-terminal biotin on a linker: ado-ado).
Sequence of TJP1_3, Q07157 (Q07157 416-512): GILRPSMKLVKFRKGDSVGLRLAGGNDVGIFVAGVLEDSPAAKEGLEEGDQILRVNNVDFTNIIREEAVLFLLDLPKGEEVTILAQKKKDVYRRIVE
Parameters: key: below the threshold = too weak to quantify, mostly under pKd 3.1 to 4

Binder | pKd
PSVYSRSQYV [CLDN8, P56748] | below the threshold
GDSSRKEYFI [GYPC, P04921] | below the threshold

What follows are binders tested against T7, LIN7C, Q9NUP9 (assay: holdup assay). Conditions: plain residues with an end cap or a label only (N-terminal biotin on a linker: ado-ado).
T7 sequence (Q9NUP9 88-185, limits assumed, looked up): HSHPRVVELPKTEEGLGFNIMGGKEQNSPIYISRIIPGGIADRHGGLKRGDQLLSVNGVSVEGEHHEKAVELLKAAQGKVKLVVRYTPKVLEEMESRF
Parameters: key: below the threshold = too weak to quantify, mostly under pKd 3.1 to 4

Binder | pKd
PSVYSRSQYV [CLDN8, P56748] | below the threshold
GDSSRKEYFI [GYPC, P04921] | below the threshold

The binders below were run against Inadl_6, Q8NI35 (assay: holdup assay). Conditions: plain residues with an end cap or a label only (N-terminal biotin on a linker: ado-ado).
Sequence of Inadl_6, Q8NI35 (Q8NI35 1058-1167): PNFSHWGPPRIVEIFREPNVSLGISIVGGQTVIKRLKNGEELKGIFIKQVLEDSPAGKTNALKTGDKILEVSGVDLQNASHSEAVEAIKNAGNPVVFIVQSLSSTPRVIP
Parameters: key: below the threshold = too weak to quantify, mostly under pKd 3.1 to 4

Binder | pKd
PSVYSRSQYV [CLDN8, P56748] | below the threshold
GDSSRKEYFI [GYPC, P04921] | 3.54

These binders were tested against T8, SNTB1, Q13884 (assay: holdup assay). Conditions: plain residues with an end cap or a label only (N-terminal biotin on a linker: ado-ado).
T8 sequence (Q13884 107-205, limits assumed, looked up): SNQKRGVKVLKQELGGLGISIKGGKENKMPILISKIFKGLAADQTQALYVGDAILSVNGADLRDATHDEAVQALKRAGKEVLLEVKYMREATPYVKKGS
Parameters: key: below the threshold = too weak to quantify, mostly under pKd 3.1 to 4

Binder | pKd
PSVYSRSQYV [CLDN8, P56748] | below the threshold
GDSSRKEYFI [GYPC, P04921] | below the threshold

These binders were tested against T9, PDZRN3_1, Q9UPQ7 (assay: holdup assay). Conditions: plain residues with an end cap or a label only (N-terminal biotin on a linker: ado-ado).
T9 sequence (Q9UPQ7 244-349, limits assumed, looked up): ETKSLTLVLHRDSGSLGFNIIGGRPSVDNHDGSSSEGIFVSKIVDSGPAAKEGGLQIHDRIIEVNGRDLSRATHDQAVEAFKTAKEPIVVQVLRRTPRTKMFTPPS
Parameters: key: below the threshold = too weak to quantify, mostly under pKd 3.1 to 4

Binder | pKd
PSVYSRSQYV [CLDN8, P56748] | below the threshold
GDSSRKEYFI [GYPC, P04921] | below the threshold

The binders below were run against T10, SNTG2, Q9NY99 (assay: holdup assay). Conditions: plain residues with an end cap or a label only (N-terminal biotin on a linker: ado-ado).
T10 sequence (Q9NY99 68-166, limits assumed, looked up): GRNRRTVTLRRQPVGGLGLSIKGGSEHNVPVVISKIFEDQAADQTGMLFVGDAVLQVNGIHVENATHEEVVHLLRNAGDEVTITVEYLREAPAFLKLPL
Parameters: key: below the threshold = too weak to quantify, mostly under pKd 3.1 to 4

Binder | pKd
PSVYSRSQYV [CLDN8, P56748] | below the threshold
GDSSRKEYFI [GYPC, P04921] | below the threshold

These binders were tested against DLG1_3, Q12959 (assay: holdup assay). Conditions: plain residues with an end cap or a label only (N-terminal biotin on a linker: ado-ado).
Sequence of DLG1_3, Q12959 (Q12959 457-571): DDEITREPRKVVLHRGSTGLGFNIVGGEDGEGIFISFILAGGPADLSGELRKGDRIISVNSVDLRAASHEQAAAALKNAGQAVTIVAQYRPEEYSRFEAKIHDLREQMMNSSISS
Parameters: key: below the threshold = too weak to quantify, mostly under pKd 3.1 to 4

Binder | pKd
PSVYSRSQYV [CLDN8, P56748] | below the threshold
GDSSRKEYFI [GYPC, P04921] | below the threshold

Each binder was assayed against T11, LNX2_3, Q8N448 (assay: holdup assay). Conditions: plain residues with an end cap or a label only (N-terminal biotin on a linker: ado-ado).
T11 sequence (Q8N448 463-564, limits assumed, looked up): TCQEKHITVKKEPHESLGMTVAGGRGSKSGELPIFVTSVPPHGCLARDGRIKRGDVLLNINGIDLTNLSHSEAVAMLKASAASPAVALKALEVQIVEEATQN
Parameters: key: below the threshold = too weak to quantify, mostly under pKd 3.1 to 4

Binder | pKd
PSVYSRSQYV [CLDN8, P56748] | below the threshold
GDSSRKEYFI [GYPC, P04921] | below the threshold

The binders below were run against T12, HTRA4, P83105 (assay: holdup assay). Conditions: plain residues with an end cap or a label only (N-terminal biotin on a linker: ado-ado).
T12 sequence (P83105 378-476, limits assumed, looked up): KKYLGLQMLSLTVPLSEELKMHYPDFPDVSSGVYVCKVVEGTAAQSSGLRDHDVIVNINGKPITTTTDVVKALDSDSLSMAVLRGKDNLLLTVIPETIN
Parameters: key: below the threshold = too weak to quantify, mostly under pKd 3.1 to 4

Binder | pKd
PSVYSRSQYV [CLDN8, P56748] | 4.23
GDSSRKEYFI [GYPC, P04921] | below the threshold
